Assay results: patent US20150065381A1
Values joined by “and” are separate entries in the source; they are usually repeats but may differ in a detail not shown here. Identical values can stand only once.

How the values were obtained:
[1] = biological target: HIV-1 envelope of gp160 clone AG-010.c14 (HIV-1); assay: capture ELISA, original data
[2] = biological target: HIV-1 envelope of gp160 clone B-Acute-010.c08 (HIV-1); assay: capture ELISA, original data
[3] = biological target: HIV-1 envelope clone G-011.c05 (multiclade gp160 clone panel) (HIV-1); assay: capture ELISA, original data
[4] = biological target: HIV-1 envelope of gp160 clone B-Chronic-014.c02 (HIV-1); assay: capture ELISA, original data
[5] = biological target: HIV-1 envelope clone G-011.c02 (multiclade gp160 clone panel) (HIV-1); assay: capture ELISA, original data
[6] = biological target: HIV-1 envelope of gp160 clone B-Acute-008.c11 (HIV-1); assay: capture ELISA, original data
[7] = biological target: HIV-1 envelope of gp160 clone AG-010.c11 (HIV-1); assay: capture ELISA, original data
[8] = biological target: HIV-1 envelope of gp160 clone B-Acute-010.c09 (HIV-1); assay: capture ELISA, original data
[9] = biological target: BG505 envelope (gp120 monomer released from lysed pseudovirus) (HIV-1); assay: antigen capture ELISA, mAb 2.5 ug/ml, plate 2
[10] = biological target: aMLV envelope (from lysed pseudovirus); assay: antigen capture ELISA, mAb 2.5 ug/ml, plate 2
[11] = biological target: HIV-1 envelope of gp160 clone B-Chronic-014.c02 (HIV-1); assay: capture ELISA, plate 2, mAb 0.3 ug/ml
[12] = biological target: HIV-1 envelope clone G-011.c02 (multiclade gp160 clone panel) (HIV-1); assay: capture ELISA, plate 2, mAb 0.3 ug/ml
[13] = biological target: HIV-1 envelope clone F1-002.c11 (multiclade gp160 clone panel) (HIV-1); assay: capture ELISA, plate 2, mAb 0.3 ug/ml
[14] = biological target: HIV-1 envelope of gp160 clone B-Acute-008.c11 (HIV-1); assay: capture ELISA, plate 2, mAb 0.3 ug/ml
[15] = biological target: HIV-1 envelope clone F1-002.c16 (multiclade gp160 clone panel) (HIV-1); assay: capture ELISA, plate 2, mAb 0.3 ug/ml
[16] = biological target: HIV-1 16055 envelope (HIV-1); assay: capture ELISA, plate 2, mAb 0.3 ug/ml
[17] = biological target: HIV-1 JRFL envelope (HIV-1); assay: capture ELISA, plate 2, mAb 0.3 ug/ml
[18] = biological target: HIV-1 envelope of gp160 clone B-Acute-009-c08 (HIV-1); assay: capture ELISA, plate 2, mAb 0.3 ug/ml
[19] = biological target: HIV-1 envelope of gp160 clone B-Acute-010.c09 (HIV-1); assay: capture ELISA, plate 2, mAb 0.3 ug/ml
[20] = biological target: HIV-1 envelope of gp160 clone AG-010.c14 (HIV-1); assay: capture ELISA, plate 2, mAb 7.5 ug/ml
[21] = biological target: HIV-1 envelope of gp160 clone B-Acute-010.c08 (HIV-1); assay: capture ELISA, plate 2, mAb 7.5 ug/ml
[22] = biological target: HIV-1 envelope clone G-011.c05 (multiclade gp160 clone panel) (HIV-1); assay: capture ELISA, plate 2, mAb 7.5 ug/ml
[23] = biological target: HIV-1 envelope of gp160 clone B-Chronic-014.c02 (HIV-1); assay: capture ELISA, plate 2, mAb 7.5 ug/ml
[24] = biological target: HIV-1 JRCSF envelope (HIV-1) (UniProt P20871); assay: capture ELISA, plate 2, mAb 7.5 ug/ml
[25] = biological target: HIV-1 envelope clone G-011.c02 (multiclade gp160 clone panel) (HIV-1); assay: capture ELISA, plate 2, mAb 7.5 ug/ml
[26] = biological target: HIV-1 envelope clone BF-002.c08 (multiclade gp160 clone panel) (HIV-1); assay: capture ELISA, plate 2, mAb 7.5 ug/ml
[27] = biological target: HIV-1 envelope clone F1-002.c11 (multiclade gp160 clone panel) (HIV-1); assay: capture ELISA, plate 2, mAb 7.5 ug/ml
[28] = biological target: HIV-1 envelope of gp160 clone B-Acute-008.c11 (HIV-1); assay: capture ELISA, plate 2, mAb 7.5 ug/ml
[29] = biological target: HIV-1 envelope clone F1-002.c16 (multiclade gp160 clone panel) (HIV-1); assay: capture ELISA, plate 2, mAb 7.5 ug/ml
[30] = biological target: HIV-1 envelope of gp160 clone AG-010.c11 (HIV-1); assay: capture ELISA, plate 2, mAb 7.5 ug/ml
[31] = biological target: HIV-1 16055 envelope (HIV-1); assay: capture ELISA, plate 2, mAb 7.5 ug/ml
[32] = biological target: HIV-1 envelope clone BF-002.c05 (multiclade gp160 clone panel) (HIV-1); assay: capture ELISA, plate 2, mAb 7.5 ug/ml
[33] = biological target: HIV-1 JRFL envelope (HIV-1); assay: capture ELISA, plate 2, mAb 7.5 ug/ml
[34] = biological target: HIV-1 envelope of gp160 clone B-Acute-009-c08 (HIV-1); assay: capture ELISA, plate 2, mAb 7.5 ug/ml
[35] = biological target: HIV-1 envelope of gp160 clone B-Acute-010.c09 (HIV-1); assay: capture ELISA, plate 2, mAb 7.5 ug/ml
[36] = biological target: BG505 envelope (gp120 monomer released from lysed pseudovirus) (HIV-1); assay: antigen capture ELISA, mAb 7.5 ug/ml, plate 1
[37] = biological target: aMLV envelope (from lysed pseudovirus); assay: antigen capture ELISA, mAb 7.5 ug/ml, plate 1
[38] = biological target: BG505 envelope (gp120 monomer released from lysed pseudovirus) (HIV-1); assay: antigen capture ELISA, mAb 0.8 ug/ml, plate 2
[39] = biological target: aMLV envelope (from lysed pseudovirus); assay: antigen capture ELISA, mAb 0.8 ug/ml, plate 2

Substance	ELISA OD [9]	ELISA OD [10]	ELISA OD [11]	ELISA OD [12]	ELISA OD [14]	ELISA OD [18]	ELISA OD [19]	ELISA OD [20]	ELISA OD [21]	ELISA OD [22]	ELISA OD [23]	ELISA OD [24]	ELISA OD [25]	ELISA OD [28]	ELISA OD [30]	ELISA OD [34]	ELISA OD [35]	ELISA OD [36]	ELISA OD [37]	ELISA OD [38]	further results
PGT151 (antibody)	0.063 OD	0.075 OD and 0.104 OD	0.216 OD	0.116 OD	0.234 OD	0.063 OD	0.072 OD	0.191 OD	0.21 OD	0.125 OD	0.462 OD	0.098 OD and 0.121 OD	0.197 OD	0.209 OD	0.116 OD	0.191 OD	0.121 OD	0.094 OD	0.098 OD and 0.075 OD	0.054 OD	ELISA OD [1]: 0.522 OD; ELISA OD [2]: 0.211 OD; ELISA OD (original data) [3]: 0.145 OD; ELISA OD [4]: 0.247 OD; ELISA OD (original data) [5]: 0.086 OD; ELISA OD [6]: 0.321 OD; ELISA OD [7]: 0.119 OD; ELISA OD [8]: 0.092 OD; ELISA OD [13]: 0.058 OD; ELISA OD [15]: 0.107 OD; ELISA OD [16]: 0.054 OD and 0.096 OD; ELISA OD [17]: 0.073 OD and 0.088 OD; ELISA OD [26]: 0.102 OD; ELISA OD [27]: 0.135 OD; ELISA OD [29]: 0.138 OD; ELISA OD [31]: 0.119 OD and 0.118 OD; ELISA OD [32]: 0.253 OD; ELISA OD [33]: 0.138 OD and 0.149 OD; ELISA OD [39]: 0.054 OD and 0.078 OD
PG9 (antibody)	0.346 OD	0.059 OD and 0.053 OD	0.479 OD	0.052 OD	0.097 OD	0.057 OD	0.074 OD	0.852 OD	0.33 OD	0.235 OD	1.48 OD	0.211 OD and 0.205 OD	0.099 OD	0.204 OD	0.65 OD	0.114 OD	0.151 OD	0.428 OD	0.084 OD and 0.072 OD	0.261 OD	ELISA OD [1]: 3.69 OD; ELISA OD [2]: 0.547 OD; ELISA OD (original data) [3]: 1.25 OD; ELISA OD [4]: 2.42 OD; ELISA OD (original data) [5]: 0.068 OD; ELISA OD [6]: 0.75 OD; ELISA OD [7]: 1.06 OD; ELISA OD [8]: 0.685 OD; ELISA OD [16]: 0.118 OD and 0.146 OD; ELISA OD [17]: 0.06 OD and 0.056 OD; ELISA OD [31]: 0.263 OD and 0.251 OD; ELISA OD [33]: 0.07 OD and 0.054 OD; ELISA OD [39]: 0.056 OD and 0.051 OD
PGT145 (antibody)	0.077 OD	0.07 OD and 0.066 OD	0.058 OD	0.104 OD	0.092 OD	0.084 OD	0.082 OD	0.094 OD	0.276 OD	0.138 OD	0.092 OD	0.111 OD and 0.089 OD	0.112 OD	0.148 OD	0.146 OD	0.15 OD	0.11 OD	0.104 OD	0.098 OD and 0.082 OD	0.066 OD	ELISA OD [1]: 0.081 OD; ELISA OD [2]: 0.211 OD; ELISA OD (original data) [3]: 0.301 OD; ELISA OD [4]: 0.077 OD; ELISA OD (original data) [5]: 0.077 OD; ELISA OD [6]: 0.178 OD; ELISA OD [7]: 0.101 OD; ELISA OD [8]: 0.075 OD; ELISA OD [13]: 0.059 OD; ELISA OD [15]: 0.254 OD; ELISA OD [16]: 0.066 OD and 0.1 OD; ELISA OD [17]: 0.068 OD and 0.08 OD; ELISA OD [26]: 0.074 OD; ELISA OD [27]: 0.099 OD; ELISA OD [29]: 0.518 OD; ELISA OD [31]: 0.117 OD and 0.09 OD; ELISA OD [32]: 0.649 OD; ELISA OD [33]: 0.093 OD and 0.082 OD; ELISA OD [39]: 0.062 OD
PG16 (antibody)	0.103 OD	0.067 OD and 0.069 OD	0.222 OD	0.09 OD	0.141 OD	0.077 OD	0.071 OD	0.8 OD	0.301 OD	0.153 OD	0.513 OD	0.226 OD and 0.245 OD	0.097 OD	0.215 OD	0.302 OD	0.092 OD	0.244 OD	0.12 OD	0.103 OD and 0.072 OD	0.165 OD	ELISA OD [13]: 0.098 OD; ELISA OD [15]: 0.224 OD; ELISA OD [26]: 0.164 OD; ELISA OD [27]: 0.154 OD; ELISA OD [29]: 0.217 OD; ELISA OD [32]: 0.764 OD; ELISA OD [39]: 0.072 OD and 0.064 OD
PGV04 (antibody)	1.04 OD	0.085 OD and 0.089 OD	1.52 OD	0.189 OD	0.129 OD	0.075 OD	0.424 OD	1.68 OD	3.25 OD	0.719 OD	4 OD	2.78 OD and 2.65 OD	1.25 OD	0.109 OD	0.22 OD	0.459 OD	3.44 OD	1.37 OD	0.092 OD and 0.074 OD	0.745 OD	ELISA OD [13]: 0.064 OD; ELISA OD [15]: 0.142 OD; ELISA OD [26]: 3.2 OD; ELISA OD [27]: 0.506 OD; ELISA OD [29]: 0.626 OD; ELISA OD [32]: 4 OD; ELISA OD [39]: 0.085 OD
